Experimental data as given in patent publication US9463249B2, “Crystalline insulin-conjugates” (SmartCells, Inc., priority 2009, dated 2016).

Tests used:
[1] = rat, in vivo, iv
Procedure: To determine the elimination rate in the presence of elevated glucose levels, one hour before the start of the experiment one rat cannula was connected to a syringe infusion pump containing a sterile 50% w/v glucose solution. The pump infusion rate was adjusted by the experimenter to ensure that the blood glucose levels in the animal remained above 300 mg/dL at all times during the experiment. Blood glucose was measured using commercially available test strips (Precision Xtra, Abbott Laboratories, Abbott Park, Ill.). […]
(§1) Throughout the experiment, blood glucose was measured using commercially available test strips (Precision Xtra, Abbott Laboratories, Abbott Park, Ill.). Blood from each timepoint was centrifuged at 4 C to collect the serum, and serum insulin or serum conjugate concentrations were subsequently measured with a commercially available ELISA kit (Iso-Insulin ELISA, Mercodia, Uppsala, Sweden). […]
as §1

[2] = Glucose-responsive PK under constant i.v. infusion with i.p. glucose injection at 240 min; parameters: species or system Sprague-Dawley rats; settings: rat, in vivo, iv
Procedure: In this example, the i.v. elimination rate experiment described in Example 30 was modified from a single i.v. bolus of 0.4 mg conjugate/kg body weight to a continuous i.v. infusion.
A blood sample was taken at t=0 min, after which the constant i.v. infusion was initiated.
Throughout the experiments, blood glucose was measured using commercially available test strips (Precision Xtra, Abbott Laboratories, Abbott Park, Ill.). Blood from each timepoint was centrifuged at 4 C to collect the serum, and serum insulin or serum conjugate concentrations were subsequently measured with a commercially available ELISA kit (Iso-Insulin ELISA, Mercodia, Uppsala, Sweden).

lectins = assay: Relative lectin binding affinities of saccharide ligands (FIG. 1); settings: four sugars shown in FIG. 1

Molecule | effect of sugars on elimination rate, in words [1] | hypoglycemia prior to glucose injection [2] | lectin binding affinity relative to the other sugars (lectins)
RHI: recombinant human insulin (MW=5808 Da, Sigma Aldrich), unconjugated control | not affected in the presence of sugars | causes significant hypoglycemia prior to glucose injection | –
NCCO[C@H]1O[C@H](CO[C@H]2O[C@H](CO)[C@@H](O)[C@H](O)[C@@H]2O)[C@@H](O)[C@H](O[C@H]2O[C@H](CO)[C@@H](O)[C@H](O)[C@@H]2O)[C@@H]1O [AETM, Man (α-1,3)-Man(α-1.6)-α-1-aminoethylmannopyranoside] | – | – | highest affinity of the four sugars shown
